Substrate in series [1]: N[C@H]1C(C(=O)O)=CC=C[C@@H]1O
The experiment in a line: purified protein. It counts as biochemical, Pseudomonas fluorescens. Particulars: 50 mM sodium phosphate pH 7.5, 1% DMSO, 25 °C.

Substrate in series [2]: CCOC1C=CC=C(C(=O)O)C1N
The experiment in a line: purified protein. It counts as biochemical, Pseudomonas fluorescens. Particulars: 50 mM sodium phosphate pH 7.5, 1% DMSO, 25 °C, 1000 nM PhzF, racemic substrate.

[3] abbreviates: 200 nM PhzF, labelled compound (deuterated at C3).

The source of these data is article PMC5524880, “Mechanisms and Specificity of Phenazine Biosynthesis Protein PhzF” (Scientific Reports, 2017).

B1: PhzF (Pseudomonas fluorescens) (protein)
chain: MHNYVIIDAFASVPLEGNPVAVFFDADDLPPAQMQRIAREMNLSESTFVLKPRNGGDALIRIFTPVNELPFAGHPLLGTAIALGAHTDNHRLYLETQMGTIAFELERQNGSVIAASMDQPIPTWTALGRDAELLKALGISDSTFPIEIYHNGPRHVFVGLPSIDALSALHPDHRALSNFHDMAINCFAGAGRRWRSRMFSPAYGVVEDAATGSAAGPLAIHLARHGQIEFGQPVEILQGVEIGRPSLMFAKAEGRAEQLTRVEVSGNGVTFGRGTIVL
notes: N-terminal His6 tag, expressed in E. coli, homodimer
Broadly, the Km is the concentration of substrate that gives half-maximal velocity. As usually defined, the kcat is the number of substrate molecules converted per active site and unit of time at saturation. Turning to B1, the Km in the series “purified protein [1]” (40 nM PhzF dimer) is given as 517 ± 57 µM; in “purified protein [1]” (setting [3]), 311 ± 14 µM; in “purified protein [2]”, 1842 ± 355 µM. In addition, the kcat in the series “purified protein [1]” (40 nM PhzF dimer) is 3.23 ± 0.19 s⁻¹; in “purified protein [1]” (setting [3]) it was 0.34 ± 0.01 s⁻¹; in the series “purified protein [2]” it was 0.12 ± 0.02 s⁻¹.
